# From article PMC6628648, “Enabling microbial syringol conversion through structure-guided protein engineering” (Proceedings of the National Academy of Sciences of the …, 2019)
# How the values were obtained:
# [1] = test system: COc1cccc(OC)c1O; experiment: purified protein, by the assay type; details: pH 7.5; 25.0 °C
# [2] = test system: COc1ccccc1O; experiment: purified protein, by the assay type; details: pH 7.5; 25.0 °C
substance,measurement,setting,value
GcoA-F169A (Amycolatopsis sp. ATCC 39116; F169A),Km,[1],10 ± 1 µM
same,kcat,[1],5.9 ± 0.01 s⁻¹
same,kcat/Km,[1],600 ± 90 mM⁻¹ s⁻¹
same,Km,[2],40 ± 6 µM
same,kcat,[2],11 ± 0.03 s⁻¹
same,kcat/Km,[2],290 ± 40 mM⁻¹ s⁻¹
